For data set [1], the target named is FANCJ-R707C with a C-terminal FLAG tag (human) (UniProt Q9BX63).
The target of data set [2] is T1, FANCJ-wild type (WT) with a C-terminal FLAG tag (human), Q9BX63.
T1 chain: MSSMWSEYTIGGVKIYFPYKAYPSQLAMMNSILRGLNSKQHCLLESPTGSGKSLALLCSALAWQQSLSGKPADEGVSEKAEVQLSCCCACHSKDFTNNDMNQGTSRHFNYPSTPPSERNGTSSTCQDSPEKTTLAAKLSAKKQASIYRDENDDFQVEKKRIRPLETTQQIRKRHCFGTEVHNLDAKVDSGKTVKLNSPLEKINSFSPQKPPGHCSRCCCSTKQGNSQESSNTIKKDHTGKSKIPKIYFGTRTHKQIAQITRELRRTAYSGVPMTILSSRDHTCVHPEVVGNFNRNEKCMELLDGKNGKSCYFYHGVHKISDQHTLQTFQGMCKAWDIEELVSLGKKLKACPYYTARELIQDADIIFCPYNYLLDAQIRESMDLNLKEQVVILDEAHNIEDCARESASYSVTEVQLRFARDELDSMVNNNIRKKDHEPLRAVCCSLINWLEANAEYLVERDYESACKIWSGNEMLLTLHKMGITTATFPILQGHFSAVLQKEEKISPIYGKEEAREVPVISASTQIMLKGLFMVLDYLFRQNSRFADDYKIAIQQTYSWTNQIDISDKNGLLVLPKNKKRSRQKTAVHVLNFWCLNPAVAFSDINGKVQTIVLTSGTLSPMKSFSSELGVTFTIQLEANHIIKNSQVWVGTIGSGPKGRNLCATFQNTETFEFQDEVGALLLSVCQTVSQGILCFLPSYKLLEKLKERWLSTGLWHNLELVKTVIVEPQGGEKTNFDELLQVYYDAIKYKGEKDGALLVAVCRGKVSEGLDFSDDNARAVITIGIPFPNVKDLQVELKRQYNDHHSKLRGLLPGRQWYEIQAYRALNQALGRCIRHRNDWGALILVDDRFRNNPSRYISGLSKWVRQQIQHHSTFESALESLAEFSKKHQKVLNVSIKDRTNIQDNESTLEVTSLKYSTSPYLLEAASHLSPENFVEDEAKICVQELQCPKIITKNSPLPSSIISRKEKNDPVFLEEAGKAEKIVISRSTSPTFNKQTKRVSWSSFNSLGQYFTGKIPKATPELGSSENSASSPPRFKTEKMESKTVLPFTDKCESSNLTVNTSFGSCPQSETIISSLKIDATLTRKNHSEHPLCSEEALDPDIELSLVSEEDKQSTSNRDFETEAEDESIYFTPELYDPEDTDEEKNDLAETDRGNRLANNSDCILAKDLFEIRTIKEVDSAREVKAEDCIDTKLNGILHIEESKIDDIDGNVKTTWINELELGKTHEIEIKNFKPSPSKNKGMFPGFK
The data set is described as follows: SEC; purified recombinant FANCJ applied to a Superdex-200 column on an AKTA FPLC, UV detection, calibrated with molecular mass markers; dimer and monomer peaks. Conditions: remark: other sources report otherwise.

Data set [3] deals with the molecule itself. Described as above.
The next data set has as its target T2, FANCJ-WT (Homo sapiens, UniProt Q9BX63 1-1249).
T2 sequence: T1 chain
The data set is described as follows: EMSA; 5 mM Mg2+, no ATP; EMSA: 40 mM Tris-HCl pH 7.4, 25 mM KCl, 5 mM MgCl2, 2 mM DTT, 2% glycerol, 100 ng/ul BSA, no ATP, 0.5 nM DNA, 24 C 30 min; native 5% PAGE in 1x TBE at 4 C. A general note: A gel shift assay detects complexes by their altered migration in electrophoresis.

Where a chain is given by its changes, count along the chain named. Numbers in names are those of the source.

This note sets out measurements from publication PMC6159516 (Nucleic Acids Research, 2018).

RPA (complex) came in with a percent of 34 bp forked duplex DNA substrate (0.5 nM) unwound by FANCJ-R707C (20 nM) with increasing RPA, up to 8 nM, 30°C, 15 min (stimulation of helicase activity by RPA) in data set [1] of 45%.

B1: FANCJ-wild type (WT) with a C-terminal FLAG tag, Q9BX63 1-1249 (enzyme)
chain: T1 chain
Turning to B1, the stoichiometry N in data set [2] was found to be 2.

B2: FANCJ-H396D with a C-terminal FLAG tag (enzyme, human, UniProt Q9BX63 1-1249, looked up)
chain: T1 chain with H396D
In the case of B2, the “stoichiometry N” value in data set [3] came to 2.

B3: single-stranded 45-mer (DC26) (ssDNA)
DNA: TTTTTTTTTTTTTTTTTTTTTTCCCAGTAAAACGACGGCCAGTGC
With B3, in the data set with FANCJ-WT, the binding result is “binds”.

What is called stoichiometry N is the number of molecules, sites or subunits per partner or assembly.
